Results on one molecule are retold here after PMC9984183 (Science Advances, 2023).

In the assay the target is human secretory pathway Ca2+/Mn2+ ATPase 1, isoform 1a (SPCA1a), PA-tagged (human, UniProt P98194). Briefly: SEC. In general terms: Size exclusion chromatography separates by hydrodynamic size, large species first.
human secretory pathway Ca2+/Mn2+ ATPase 1, isoform 1a (SPCA1a), PA-tagged, sequence (P98194 whole entry, canonical isoform): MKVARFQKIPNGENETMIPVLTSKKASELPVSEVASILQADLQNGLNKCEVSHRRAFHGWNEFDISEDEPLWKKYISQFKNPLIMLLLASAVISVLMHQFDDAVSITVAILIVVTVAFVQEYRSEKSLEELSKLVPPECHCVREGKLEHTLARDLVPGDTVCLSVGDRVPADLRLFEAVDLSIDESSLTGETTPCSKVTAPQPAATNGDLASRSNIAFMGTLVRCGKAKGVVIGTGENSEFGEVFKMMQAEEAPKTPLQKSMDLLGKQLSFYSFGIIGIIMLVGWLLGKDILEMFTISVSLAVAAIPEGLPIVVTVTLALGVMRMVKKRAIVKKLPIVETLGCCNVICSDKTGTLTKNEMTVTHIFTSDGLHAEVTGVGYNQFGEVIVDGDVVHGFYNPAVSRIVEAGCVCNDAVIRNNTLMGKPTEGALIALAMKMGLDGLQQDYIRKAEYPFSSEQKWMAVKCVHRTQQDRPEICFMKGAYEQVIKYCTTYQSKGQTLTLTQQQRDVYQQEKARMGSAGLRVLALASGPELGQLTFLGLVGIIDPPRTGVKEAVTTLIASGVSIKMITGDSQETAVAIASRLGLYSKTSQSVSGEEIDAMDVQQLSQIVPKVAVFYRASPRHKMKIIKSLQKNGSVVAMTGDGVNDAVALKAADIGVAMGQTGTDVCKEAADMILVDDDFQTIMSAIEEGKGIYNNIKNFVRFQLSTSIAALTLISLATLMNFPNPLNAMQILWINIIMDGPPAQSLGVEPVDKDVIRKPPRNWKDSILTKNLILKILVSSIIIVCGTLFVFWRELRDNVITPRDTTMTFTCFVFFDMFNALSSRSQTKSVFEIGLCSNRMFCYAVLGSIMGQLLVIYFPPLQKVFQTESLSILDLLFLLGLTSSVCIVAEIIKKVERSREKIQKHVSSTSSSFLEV

B1: nanobody 14 (Nb14), recombinant (VHH)
VHH: QVQLQESGGGLVQAGGSLRLSCAASGSIFGADWMGWYRQAPGKEREFVAGIGHGASTYYADSVKGRFTISRDNAKNTVYLQMNSLKPEDTAVYYCAVQYTQGWSGQYRSYDSLLYWGQGTQVTVSS
Regarding B1, the binding result is reported as “binds”.
